The target of experiment [1] is T1, SARS-CoV-2 spike receptor-binding domain (RBD), residues 333-529 (SARS-CoV-2 ancestral (Wuhan-Hu-1, …, UniProt P0DTC2)).
T1 construct: also called SARS-CoV-2 RBD; wildtype RBD
Description: crystal structure. The following applies: both partners purified.

For experiment [2], the target named is T2, SARS-CoV-2 WT RBD (Acro Biosystems, Cat #SPD-C52H3) (SARS-CoV-2 ancestral wildtype, UniProt P0DTC2).
T2 construct: also called wildtype RBD; ancestral wildtype SARS-CoV-2 RBD; source: bought: Acro Biosystems
Description: ELISA. As to conditions: both partners purified. In general terms: In an ELISA, binding on a coated surface is turned into a signal by an enzyme label.

The record followed here is article PMC9336126 (Communications Biology, 2022).

B1: ADI-62113 Fab (Fab, V domains shown)
VH: QVQLQQSGAEVKKPGASVKLSCKASGYTFSVFPIHWVRQAPGQRLEWMGWHNAGDGDTKYSQKFQGRVTIISDTSASTAYMELSSLKSEDTAVYYCARAARPYYDRRGYFFRADYFQHWGQGTLVTVSS
VL: DIQVTQSPSSLSASVGDRVTITCQASQDIKNSLNWYQQKPGKAPKLLISDASNLETGVPSRFSGNGSGTDFTFTISSLQPEDIATYYCQQYDNLITFGPGTKVEIK
Turning to B1, the binding result in experiment [1] is given as “binds”.

B2: ADI-62113 IgG (antibody, V domains shown)
VH: B1 VH
VL: B1 VL
For B2, in experiment [2], the binding result is “binds”.
